Three molecules from patent US7807788 (GlaxoSmithKline, dated 2010) can be followed below.

“And” between values parts separate entries of the source, which are not always exact repeats. Identical values can stand only once.

Assay [1] concerns the target T1, recombinant E.coli-expressed human IL-4 (human, UniProt P05112 25-153).
T1 sequence (looked up): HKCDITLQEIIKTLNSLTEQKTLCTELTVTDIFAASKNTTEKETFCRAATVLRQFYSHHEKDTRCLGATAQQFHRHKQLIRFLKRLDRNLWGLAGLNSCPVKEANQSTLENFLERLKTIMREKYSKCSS
The assay is described as follows: sandwich ELISA: human IL-4 captured by goat anti-human IL-4 polyclonal, titrated antibody (positive control). (In general: ELISA stands for enzyme-linked immunosorbent assay.)

The target in the next assay is T2, alanine-scan peptide 63 (human, N-terminal biotin).
T2 construct: also called K103A peptide
T2 peptide: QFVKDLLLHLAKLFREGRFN
Description: peptide ELISA: immobilised biotinylated peptide, titrated parental 6A1 (mAb named in legend paragraph 137, not on the sheet).

The next assay deals with T3, alanine-scan peptide 66 (human, N-terminal biotin).
T3 construct: also called F106A peptide
T3 peptide: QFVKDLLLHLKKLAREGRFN
Described as above.

Assay [2] concerns the target T4, alanine-scan peptide 1 (parental sequence, no substitution) (human, N-terminal biotin).
T4 construct: also called parental peptide
T4 peptide: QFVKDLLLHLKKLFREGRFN
The assay is described as above.

Another assay has as its target T5, alanine-scan peptide 65 (human, N-terminal biotin).
T5 construct: also called L105A peptide
T5 peptide: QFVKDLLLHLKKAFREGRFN
The description is as above.

Assay [3] has as its target T6, recombinant E.coli-expressed human IL-13 (human, UniProt P35225 35-146).
T6 construct: Untagged E.coli material, bought (Cambridge Bioscience) or made in-house (CA); also called hIL-13; human IL13 (CA)
The assay is described as follows: sandwich ELISA: E.coli-expressed human IL-13 captured by goat anti-human IL-13 polyclonal, titrated 6A1, anti-mouse IgG-HRP.

The target in assay [4] is T7, recombinant E.coli-expressed cynomolgus IL-13 (cynomolgus, UniProt Q5I6E4 21-132 (Macaca thibetana entry)).
T7 chain: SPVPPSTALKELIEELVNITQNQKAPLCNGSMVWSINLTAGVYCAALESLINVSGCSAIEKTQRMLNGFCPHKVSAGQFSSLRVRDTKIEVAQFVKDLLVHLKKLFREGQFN
The assay is described as follows: cell-based or functional assay.

For assay [5], the target named is T6, recombinant E.coli-expressed human IL-13. Description: cell-based or functional assay.

B1: anti-human IL4 mAb (antibody, V domains shown)
VH: QVQLQQSGPELVKPGASVKISCKASGYSFTSYWIHWIKQRPGQGLEWIGMIDPSDGETRLNQRFQGRATLTVDESTSTAYMQLRSPTSEDSAVYYCTRLKEYGNYDSFYFDVWGAGTLVTVSS
VL: DIQMTQSPASLSVSVGDTITLTCHASQNIDVWLSWFQQKPGNIPKLLIYKASNLHTGVPSRFSGSGSGTGFTLTISSLQPEDIATYYCQQAHSYPFTFGGGTKLEIKR
As to B1, in assay [1], the EC50 (read off the curve) (usually the concentration needed to bring the measured effect to its halfway point) is about 0.03 µg/mL.

B2: mouse monoclonal antibody 6A1 (antibody, mouse IgG1, V domains shown)
VH: EIQLQQSVAELVRPGASVRLSCTASGFYIKDTYMHWVIQRPEQGLEWIGTIDPANGNTKYVPKFQGKATITADTSSNTAYLRLSSLTSEDTAIYYCARSIYDDYHYDDYYAMDYWGQGTSVTVSS
VL: DVLMTQTPLSLPVSLGDQASISCRSSQNIVHINGNTYLEWYLQKPGQSPKLLIYKISDRFSGVPDRFSGSGSGTDFTLKISRVEAEDLGVYYCFQGSHVPWTFGGGTKLEIK
notes: Murine IgG1/kappa from hybridoma; also called mAb 6A1; 6A1 parental mAb
In the case of B2, the “EC50 (read off the curve)” value is about 0.02 µg/mL with alanine-scan peptide 63; about 0.03 µg/mL with alanine-scan peptide 66; ~0.02 µg/mL and ~0.03 µg/mL in assay [2]; about 0.03 µg/mL with alanine-scan peptide 65; about 0.03 µg/mL in assay [3]. In addition, in assay [4], the “Mean ND50 for 2 assays, TF-1 bioassay” value came out at 0.078 µg/mL.

B3: chimaeric 6A1 monoclonal antibody (antibody, human IgG1, V domains shown)
VH: EIQLQQSVAELVRPGASVRLSCTASGFYIKDTYMHWVIQRPEQGLEWIGTIDPANGNTKYVPKFQGKATITADTSSNTAYLRLSSLTSEDTAIYYCARSIYDDYHYDDYYAMDYWGQGTSVTVSS
VL: DVLMTQTPLSLPVSLGDQASISCRSSQNIVHINGNTYLEWYLQKPGQSPKLLIYKISDRFSGVPDRFSGSGSGTDFTLKISRVEAEDLGVYYCFQGSHVPWTFGGGTKLEIK
Regarding B3, the “Mean ND50 for 2 assays, TF-1 bioassay” value in assay [5] was determined as 0.119 µg/mL.
